For one sequence, binding signal (fold indels vs WT) results are on record in US20230235304.

Holding throughout (assay): cell_activity
Conditions in all cases: PAM 5'-GCTG-3'; HEK293T; averaged over AAVS1, VEGFA, EMX1 targets

The test system of series [1] is T1, CRISPR nuclease variant K136G,N220R,M380R K136G,N220R,M380R (synthetic construct).
T1 sequence: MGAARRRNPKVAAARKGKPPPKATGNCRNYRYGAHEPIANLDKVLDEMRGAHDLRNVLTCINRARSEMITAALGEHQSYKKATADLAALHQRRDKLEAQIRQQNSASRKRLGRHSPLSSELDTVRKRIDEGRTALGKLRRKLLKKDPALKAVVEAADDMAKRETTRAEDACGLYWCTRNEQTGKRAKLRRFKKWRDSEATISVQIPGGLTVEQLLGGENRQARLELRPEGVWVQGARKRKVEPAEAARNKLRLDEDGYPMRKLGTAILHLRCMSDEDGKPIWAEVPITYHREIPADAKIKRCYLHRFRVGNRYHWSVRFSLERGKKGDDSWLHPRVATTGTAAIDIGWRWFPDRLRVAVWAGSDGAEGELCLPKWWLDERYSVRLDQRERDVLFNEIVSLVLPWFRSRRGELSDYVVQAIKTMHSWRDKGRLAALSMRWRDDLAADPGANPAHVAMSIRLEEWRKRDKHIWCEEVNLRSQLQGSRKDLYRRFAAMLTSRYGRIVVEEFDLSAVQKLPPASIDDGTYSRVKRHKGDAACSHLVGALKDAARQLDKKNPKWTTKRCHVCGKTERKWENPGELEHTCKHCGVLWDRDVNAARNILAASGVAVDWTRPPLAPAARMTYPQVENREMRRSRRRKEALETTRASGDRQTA

The subject of series [2] is T2, CRISPR nuclease variant L580G,A512R L580G,A512R (synthetic construct).
T2 sequence: T1 sequence with G136K, R220N, R380M, A512R, L580G

In series [3] the test system is T3, CRISPR nuclease variant D509R D509R (synthetic construct).
T3 sequence: T1 sequence with G136K, R220N, R380M, D509R

The test system of series [4] is T4, CRISPR nuclease variant S511R S511R (synthetic construct).
T4 sequence: T1 sequence with G136K, R220N, R380M, S511R

Substitutions are numbered along the chain they refer to.

Take “GGUCCCAUCGGAACGGGUUGUGGUUCCGACGGAGGGAUACAUUGGUGGGG / GGAGGGATACATTGGTGGGG / CCCCACCAATGTATCCCTCC [AAVS1 crRNA (Table 5) ; AAVS1 target (Table 5)]”: the binding signal (fold indels vs WT) came out at 4.54 in series [1], 3.75 in series [2], 3.91 in series [3] and 3.71 in series [4].
